In patent US6872803:
[ ]: non-standard residue; d: D form. Hyp = O=C(O)[C@@H]1C[C@@H](O)CN1; NMeI = CC[C@H](C)[C@H](NC)C(=O)O

B1: Compound (k), H-Phe-Gly-Gly-Arg-(N-Me)Ile-Asp-Arg-Ile-NH2 (peptide)
peptide: H-FGGR[NMeI]DRI-NH2
SMILES: CC[C@H](C)[C@H](NC(=O)[C@H](CCCNC(=N)N)NC(=O)[C@H](CC(=O)O)NC(=O)[C@H]([C@@H](C)CC)N(C)C(=O)[C@H](CCCNC(=N)N)NC(=O)CNC(=O)CNC(=O)[C@@H](N)Cc1ccccc1)C(N)=O
B2: Compound (m), H-D-Arg-Arg-Pro-Hyp-Gly-Phe-Ser-D-Phe-Leu-Arg-OH (peptide)
peptide: H-[dR]RP[Hyp]GFS[dF]LR-OH
SMILES: CC(C)C[C@H](NC(=O)[C@@H](Cc1ccccc1)NC(=O)[C@H](CO)NC(=O)[C@H](Cc1ccccc1)NC(=O)CNC(=O)[C@@H]1C[C@@H](O)CN1C(=O)[C@@H]1CCCN1C(=O)[C@H](CCCNC(=N)N)NC(=O)[C@H](N)CCCNC(=N)N)C(=O)N[C@@H](CCCNC(=N)N)C(=O)O
B3: Compound (j), H-Phe-Gly-Gly-D-Arg-Ile-Asp-D-Arg-Ile-NH2 (peptide)
peptide: H-FGG[dR]ID[dR]I-NH2
SMILES: CC[C@H](C)[C@H](NC(=O)[C@@H](CCCNC(=N)N)NC(=O)[C@H](CC(=O)O)NC(=O)[C@@H](NC(=O)[C@@H](CCCNC(=N)N)NC(=O)CNC(=O)CNC(=O)[C@@H](N)Cc1ccccc1)[C@@H](C)CC)C(N)=O

Columns and labels:
[1] = target: Bovine lung-derived ANP receptor (bovine); assay: displacement of 125I-rat ANP from bovine lung membrane fraction, filter binding
[2] = target: BK receptor derived from guinea pig ilea (guinea pig); assay: inhibition of 3H-BK (200 pM) binding to guinea pig ileum membrane fraction; test compound at 10^-7 M
[3] = target: BK receptor derived from guinea pig ilea (guinea pig); assay: inhibition of 3H-BK (200 pM) binding to guinea pig ileum membrane fraction; test compound at 10^-8 M

Chain of Bovine lung-derived ANP receptor (bovine) (P10730 42-537): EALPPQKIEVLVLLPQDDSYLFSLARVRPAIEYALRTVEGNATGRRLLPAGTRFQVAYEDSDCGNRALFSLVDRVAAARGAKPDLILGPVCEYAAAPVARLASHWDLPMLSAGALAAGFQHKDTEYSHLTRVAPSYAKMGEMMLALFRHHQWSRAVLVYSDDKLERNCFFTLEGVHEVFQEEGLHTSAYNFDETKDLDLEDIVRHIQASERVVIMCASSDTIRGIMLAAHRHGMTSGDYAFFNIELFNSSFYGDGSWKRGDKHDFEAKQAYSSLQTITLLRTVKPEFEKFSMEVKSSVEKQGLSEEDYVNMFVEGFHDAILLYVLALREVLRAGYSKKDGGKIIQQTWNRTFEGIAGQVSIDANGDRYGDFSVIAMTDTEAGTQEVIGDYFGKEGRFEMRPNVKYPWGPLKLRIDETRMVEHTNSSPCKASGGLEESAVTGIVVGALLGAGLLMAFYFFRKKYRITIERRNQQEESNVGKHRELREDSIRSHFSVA
Chain of BK receptor derived from guinea pig ilea (guinea pig) (O70526 whole entry): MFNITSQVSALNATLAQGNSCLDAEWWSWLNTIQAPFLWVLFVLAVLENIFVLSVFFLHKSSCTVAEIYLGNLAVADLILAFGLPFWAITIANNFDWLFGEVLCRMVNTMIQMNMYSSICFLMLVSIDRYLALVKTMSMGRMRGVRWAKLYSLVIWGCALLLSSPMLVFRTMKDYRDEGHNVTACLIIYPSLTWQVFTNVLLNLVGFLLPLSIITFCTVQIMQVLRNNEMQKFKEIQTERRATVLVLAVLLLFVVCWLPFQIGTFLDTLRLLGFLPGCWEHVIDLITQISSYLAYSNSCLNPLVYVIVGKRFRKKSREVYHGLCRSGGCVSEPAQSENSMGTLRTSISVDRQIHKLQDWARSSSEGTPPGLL

Row | Binder | IC50 [1] | Percentage inhibition (%) [2] | Percentage inhibition (%) [3]
1 | B1 | 0.021 µM |  | 
2 | B2 |  | 68% | 20%
3 | B3 | 5.4 µM |  | 
